Results as given in patent US20180208918A1.

Experiments:
[1] = tested on: recombinant MBP-proELA-1 fusion protein (from pPROT5)
[2] = tested on: pPROT8 derived LacZ-proELA-1 fusion protein [β-galactosidase: P00722]
[3] = target: recombinant trypsin (TrypZean) (UniProt P00760); test: cell-based or functional assay
UniProt P00760, sequence (P00760 24-246): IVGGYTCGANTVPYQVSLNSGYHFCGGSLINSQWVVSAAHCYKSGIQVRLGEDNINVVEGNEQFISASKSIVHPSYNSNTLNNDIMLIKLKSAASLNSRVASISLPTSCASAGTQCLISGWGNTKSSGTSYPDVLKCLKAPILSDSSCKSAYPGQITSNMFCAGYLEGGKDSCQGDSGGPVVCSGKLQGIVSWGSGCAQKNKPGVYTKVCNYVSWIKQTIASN

Question: How did the “digestion of the fusion protein with trypsin (SDS-PAGE; elastase activity by SLAP assay)” value [1] turn out when trypsin was run?
Answer: The soluble recombinant MBP-proELA-1 protein could be digested with trypsin to yield both MBP and mature human ELA-1

Question: What about the “conversion of the fusion protein to enzymatically active human ELA-1 with trypsin” value [2] of the same molecule?
Answer: it could not be converted to enzymatically active human ELA-1 with trypsin

B1: soybean trypsin inhibitor (SBTI) (protein, UniProt P01070 25-205, looked up)
chain: DFVLDNEGNPLENGGTYYILSDITAFGGIRAAPTGNERCPLTVVQSRNELDKGIGTIISSPYRIRFIAEGHPLSLKFDSFAVIMLCVGIPTEWSVVEDLPEGPAVKIGENKDAMDGWFRLERVSDDEFNNYKLVFCPQQAEDDKCGDIGISIDHDDGTRRLVVSKNKPLVVQFQKLDKESL
Question: For B1, which Mean trypsin activity (BENZ assay), TrypZean concentration equivalent; PRT-201 from clone 55M3 Vial #1 plus TrypZean spike (to 100 ng/mL) and SBTI (to 10 ug/mL); spike without SBTI 118.7 [3] is on record?
Answer: < 1.56 ng/mL

Question: What about the Mean trypsin activity (BENZ assay), TrypZean concentration equivalent; PRT-201 from clone 55M3 Vial #2 plus TrypZean spike (to 100 ng/mL) and SBTI (to 10 ug/mL); spike without SBTI 122.4 [3] of the same molecule?
Answer: < 1.56 ng/mL

Question: What about the Mean trypsin activity (BENZ assay), TrypZean concentration equivalent; PRT-201 from clone 55M3 Vial #3 plus TrypZean spike (to 100 ng/mL) and SBTI (to 10 ug/mL); spike without SBTI 122.8 [3] of the same molecule?
Answer: < 1.56 ng/mL

Question: What about the Mean trypsin activity (BENZ assay), TrypZean concentration equivalent; PRT-201 from trypsin activated clone plus SBTI (to 10 ug/mL); intrinsic activity without SBTI 8.7 [3] of the same molecule?
Answer: < 1.56 ng/mL

Question: What about the Mean trypsin activity (BENZ assay), TrypZean concentration equivalent; PRT-201 from trypsin activated clone plus TrypZean spike (to 100 ng/mL) and SBTI (to 10 ug/mL); spike without SBTI 130.0 [3] of the same molecule?
Answer: < 1.56 ng/mL

Question: What about the Mean trypsin activity (BENZ assay), TrypZean concentration equivalent; TrypZean standard 1.56 ng/mL plus SBTI (to 10 ug/mL); without SBTI 2.7 [3] of the same molecule?
Answer: < 1.56 ng/mL

Question: What about the Mean trypsin activity (BENZ assay), TrypZean concentration equivalent; TrypZean standard 3.13 ng/mL plus SBTI (to 10 ug/mL); without SBTI 3.7 [3] of the same molecule?
Answer: < 1.56 ng/mL

Question: What about the Mean trypsin activity (BENZ assay), TrypZean concentration equivalent; TrypZean standard 6.25 ng/mL plus SBTI (to 10 ug/mL); without SBTI 6.5 [3] of the same molecule?
Answer: < 1.56 ng/mL

Question: And the Mean trypsin activity (BENZ assay), TrypZean concentration equivalent; TrypZean standard 12.5 ng/mL plus SBTI (to 10 ug/mL); without SBTI 11.2 [3]?
Answer: < 1.56 ng/mL

Question: And the Mean trypsin activity (BENZ assay), TrypZean concentration equivalent; TrypZean standard 25 ng/mL plus SBTI (to 10 ug/mL); without SBTI 23.5 [3]?
Answer: < 1.56 ng/mL

Question: What about the Mean trypsin activity (BENZ assay), TrypZean concentration equivalent; TrypZean standard 50 ng/mL plus SBTI (to 10 ug/mL); without SBTI 49.4 [3] of the same molecule?
Answer: < 1.56 ng/mL

Question: And the Mean trypsin activity (BENZ assay), TrypZean concentration equivalent; TrypZean standard 100 ng/mL plus SBTI (to 10 ug/mL); without SBTI 102.4 [3]?
Answer: < 1.56 ng/mL
